Measured values published in US20050054575A1 (US Dept. of Health and Human Services, published 2005).
Blank lines part the entries; values can stand above or below the binder they belong to.

Experiments:
[1] = target: T1, HLA-A2 (human); experiment: flow cytometry of HLA-A2 on T2A2 cells, peptide 0 to 50 µg/ml
T1 construct: whole, on cells; also called HLA-A2.1; MHC-class I A2
Method: (§1) Peptide Binding to HLA-A2. […] Briefly, 1×10⁶ cells in serum-free Iscove's modified Dulbecco's complete medium were incubated with peptides at a concentration of 50 μg/ml in 24 well culture plates at 37° C. in 5% CO₂. Flow cytometry for peptide binding was performed using T2 cells and single-color analysis. After cells were washed three times in DPBS, as described above, they were incubated for 1 h with HLA-A2 specific MAb (One Lambda, Inc.) using […] of a 1× working dilution per 10⁶ cells. UPC-10 (Cappel/Organon Teknika) was used as isotype control. The cells were washed three times and incubated with 1:100 dilution of FITC-labeled anti-mouse IgG (Becton Dickinson). Analysis was conducted with the FACScan, as described above. Cells were maintained on ice during all cell preparation and staining.

[2] = target: T1, HLA-A2; experiment: flow cytometry of HLA-A2 on peptide-loaded T2A2 cells
Method: as §1

[3] = target: T1, HLA-A2; experiment: flow cytometry of HLA-A2 on T2A2 cells
Method: as §1

binding result [1]: binds
B1: PSA-3 (L-155) also called PSA-3A (peptide)
peptide: VLSNDVCAQV
notes: Synthetic analog peptide; also called agonist peptide PSA-3A

binding result [2]: no binding (tested: 0 to 50 µg/ml)
Binder: VISNDVCAQL (Synthetic analog peptide) [PSA-3 (L-163)]

binding result [3]: binds
Binder: YISNDVCAQV (Synthetic analog peptide) [PSA-3 (Y-154)]

binding result [3]: binds
B2: PSA-3 (Y-154/L-155) (peptide)
peptide: YLSNDVCAQV
notes: Synthetic analog peptide; also called PSA-3 (L155/Y154)
